B1: GST-FIGNL1-dNLS (domain or fragment)
chain: AGKKFKDSLLEPALASVVIHKEATVFDLPKFSVCGSSQESDSLPNSAHDRDRTQDFPESNRLKLLQNAQPPMVTNTARTCPTFSAPVGESATAKFHVTPLFGNVKKENHSSAKENIGLNVFLSNQSCFPAACENPQRKSFYGSGTIDALSNPILNKACSKTEDNGPKEDSSLPTFKTAKEQLWVDQQKKYHQPQRASGSSYGGVKKSLGASRSRGILGKFVPPIPKQDGGEQNGGMQCKPYGAGPTEPAHPVDERLKNLEPKMIELIMNEIMDHGPPVNWEDIAGVEFAKATIKEIVVWPMLRPDIFTGLRGPPKGILLFGPPGTGKTLIGKCIASQSGATFFSISASSLTSKWVGEGEKMVRALFAVARCQQPAVIFIDEIDSLLSQRGDGEHESSRRIKTEFLVQLDGATTSSEDRILVVGATNRPQEIDEAARRRLVKRLYIPLPEASARKQIVINLMSKEQCCLSEEEIEQIVQQSDAFSGADMTQLCREASLGPIRSLQTADIATITPDQVRPIAYIDFENAFRTVRPSVSPKDLELYENWNKTFGCGK

Experiments:
[1] = biological target: B1; test: pull-down
[2] = biological target: MMS22L-TONSL complex (recombinant, purified) (human, UniProt Q6ZRQ5;Q96HA7); test: pull-down
Chain of MMS22L-TONSL complex (recombinant, purified) (Q6ZRQ5 whole entry, chain 1 of 2): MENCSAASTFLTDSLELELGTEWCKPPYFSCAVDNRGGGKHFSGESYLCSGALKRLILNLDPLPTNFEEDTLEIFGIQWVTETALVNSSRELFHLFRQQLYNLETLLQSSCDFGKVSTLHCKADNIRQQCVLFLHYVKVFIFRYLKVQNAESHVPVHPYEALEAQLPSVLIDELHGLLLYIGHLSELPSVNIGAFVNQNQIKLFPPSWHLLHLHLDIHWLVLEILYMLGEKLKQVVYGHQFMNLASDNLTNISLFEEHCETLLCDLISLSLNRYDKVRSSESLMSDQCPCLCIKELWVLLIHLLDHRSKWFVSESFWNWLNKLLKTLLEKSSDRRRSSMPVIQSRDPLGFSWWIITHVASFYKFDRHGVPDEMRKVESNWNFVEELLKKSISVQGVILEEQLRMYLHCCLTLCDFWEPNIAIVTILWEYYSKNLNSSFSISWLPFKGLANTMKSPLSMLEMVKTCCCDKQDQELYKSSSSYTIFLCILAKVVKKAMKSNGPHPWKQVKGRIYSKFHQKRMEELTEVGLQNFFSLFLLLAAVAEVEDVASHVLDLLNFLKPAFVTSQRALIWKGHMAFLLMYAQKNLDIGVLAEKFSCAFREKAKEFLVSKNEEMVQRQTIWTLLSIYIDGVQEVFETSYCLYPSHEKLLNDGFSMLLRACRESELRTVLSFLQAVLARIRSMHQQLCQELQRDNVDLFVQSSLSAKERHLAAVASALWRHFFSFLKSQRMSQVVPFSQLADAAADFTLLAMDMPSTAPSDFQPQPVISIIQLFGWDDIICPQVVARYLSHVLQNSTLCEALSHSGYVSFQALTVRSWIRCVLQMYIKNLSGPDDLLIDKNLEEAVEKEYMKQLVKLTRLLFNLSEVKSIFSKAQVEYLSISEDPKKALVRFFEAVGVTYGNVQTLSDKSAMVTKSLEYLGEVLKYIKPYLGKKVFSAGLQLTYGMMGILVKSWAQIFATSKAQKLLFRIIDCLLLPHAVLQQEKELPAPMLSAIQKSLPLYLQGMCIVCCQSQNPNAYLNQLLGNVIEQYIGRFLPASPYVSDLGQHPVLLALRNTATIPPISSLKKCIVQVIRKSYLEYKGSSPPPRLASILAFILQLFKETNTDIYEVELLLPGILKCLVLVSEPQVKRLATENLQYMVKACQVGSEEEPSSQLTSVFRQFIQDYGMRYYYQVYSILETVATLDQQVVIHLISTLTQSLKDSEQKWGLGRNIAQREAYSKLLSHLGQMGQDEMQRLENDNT
Chain of MMS22L-TONSL complex (recombinant, purified) (Q96HA7 whole entry, chain 2 of 2): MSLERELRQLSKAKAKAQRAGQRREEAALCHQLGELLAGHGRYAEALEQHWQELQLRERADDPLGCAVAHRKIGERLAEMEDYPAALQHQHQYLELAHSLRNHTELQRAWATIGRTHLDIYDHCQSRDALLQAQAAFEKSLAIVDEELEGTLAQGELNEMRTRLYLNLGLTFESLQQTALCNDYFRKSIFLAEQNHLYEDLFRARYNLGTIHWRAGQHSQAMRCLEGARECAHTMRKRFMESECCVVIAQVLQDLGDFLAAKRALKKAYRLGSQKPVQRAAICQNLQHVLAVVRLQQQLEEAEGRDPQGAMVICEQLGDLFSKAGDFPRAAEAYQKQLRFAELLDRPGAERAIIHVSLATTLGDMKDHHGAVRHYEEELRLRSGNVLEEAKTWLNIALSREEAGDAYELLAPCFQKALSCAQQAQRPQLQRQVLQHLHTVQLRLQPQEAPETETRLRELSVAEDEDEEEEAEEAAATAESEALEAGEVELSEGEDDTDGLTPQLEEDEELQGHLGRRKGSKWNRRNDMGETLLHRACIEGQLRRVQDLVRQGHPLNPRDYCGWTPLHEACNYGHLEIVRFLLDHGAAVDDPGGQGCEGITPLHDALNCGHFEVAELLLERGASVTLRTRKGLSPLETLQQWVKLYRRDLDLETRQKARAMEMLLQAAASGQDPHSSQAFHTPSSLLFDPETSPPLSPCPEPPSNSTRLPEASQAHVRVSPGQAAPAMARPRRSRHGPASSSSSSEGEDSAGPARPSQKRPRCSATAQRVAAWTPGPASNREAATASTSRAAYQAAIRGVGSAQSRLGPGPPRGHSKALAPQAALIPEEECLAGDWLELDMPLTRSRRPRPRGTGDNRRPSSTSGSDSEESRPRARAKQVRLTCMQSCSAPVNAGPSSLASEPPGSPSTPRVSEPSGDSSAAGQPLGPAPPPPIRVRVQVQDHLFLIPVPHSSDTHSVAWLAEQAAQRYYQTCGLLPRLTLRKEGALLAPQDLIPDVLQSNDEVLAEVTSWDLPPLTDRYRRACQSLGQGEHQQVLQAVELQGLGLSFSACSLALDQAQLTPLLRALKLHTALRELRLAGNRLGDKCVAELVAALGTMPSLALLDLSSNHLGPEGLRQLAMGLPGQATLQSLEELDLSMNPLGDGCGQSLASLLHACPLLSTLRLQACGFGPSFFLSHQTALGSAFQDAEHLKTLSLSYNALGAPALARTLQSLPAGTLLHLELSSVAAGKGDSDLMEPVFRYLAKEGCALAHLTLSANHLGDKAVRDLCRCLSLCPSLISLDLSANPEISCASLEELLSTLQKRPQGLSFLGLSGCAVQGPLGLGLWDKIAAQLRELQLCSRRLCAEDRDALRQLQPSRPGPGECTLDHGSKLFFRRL

binding result [1] | binding result [2] | Binder
binds |  | RAD51 (wild type, recombinant) (natural protein) MAMQMQLEANADTSVEEESFGPQPISRLEQCGINANDVKKLEEAGFHTVEAVAYAPKKELINIKGISEAKADKILAEAAKLVPMGFTTATEFHQRRSEIIQITTGSKELDKLLQGGIETGSITEMFGEFRTGKTQICHTLAVTCQLPIDRGGGEGKAMYIDTEGTFRPERLLAVAERYGLSGSDVLDNVAYARAFNTDHQTQLLYQASAMMVESRYALLIVDSATALYRTDYSGRGELSARQMHLARFLRMLLRLADEFGVAVVITNQVVAQVDGAAMFAADPKKPIGGNIIAHASTTRLYLRKGRGETRICKIYDSPCLPEAEAMFAINADGVGDAKD
binds |  | RAD51-K133R (natural protein) MAMQMQLEANADTSVEEESFGPQPISRLEQCGINANDVKKLEEAGFHTVEAVAYAPKKELINIKGISEAKADKILAEAAKLVPMGFTTATEFHQRRSEIIQITTGSKELDKLLQGGIETGSITEMFGEFRTGRTQICHTLAVTCQLPIDRGGGEGKAMYIDTEGTFRPERLLAVAERYGLSGSDVLDNVAYARAFNTDHQTQLLYQASAMMVESRYALLIVDSATALYRTDYSGRGELSARQMHLARFLRMLLRLADEFGVAVVITNQVVAQVDGAAMFAADPKKPIGGNIIAHASTTRLYLRKGRGETRICKIYDSPCLPEAEAMFAINADGVGDAKD
 | binds | B1
